Results published in patent publication US6841359 (GENERAL HOSPITAL, dated 2005).
Where no end group is shown, it is not given here. The star is where a group is joined. puromycin = COc1ccc(C[C@H](N*)C(=O)N[C@H]2[C@@H](O)[C@H](n3cnc4c(N(C)C)ncnc43)O[C@@H]2CO)cc1; DNA oligonucleotide = not defined here

B1: SB3 (peptide)
peptide: MTRRPTASSSSCVRHLLLRQGEHGHQALEDRDKARHVRLVEGDVEVLGGLDRLARARHEALHPQAGLVHLPLHGGDLGGHLRLVLEAHPQGDRLGLAVHHH
modifications: C-terminus joined through puromycin to a short DNA oligonucleotide (DNA-tagged peptide); 35S-methionine label
notes: also called peptide SB3
B2: SB6 (peptide)
peptide: MDEKTHWLNNFEELLARLDGLREGEDHPLVLRHHPQGDGLLDQPLGRHRALDGEVREGDRPLDQGGEEDLGALVDDDGEVLDGLVHVGVHVHDPLVCGCHHH
modifications: C-terminus joined through puromycin to a short DNA oligonucleotide (DNA-tagged peptide); 35S-methionine label
notes: also called peptide SB6
B3: N1 (peptide)
peptide: MDGHVVEGLAGELEQLRARLEHHPQGQREPMMSGGCKLG
notes: One member of the group m27; Assayed as a DNA-tagged peptide
B4: N2 (peptide)
peptide: MDEGLAGELEQLRARLEHHPQGQREPLVQEVEDVDEGLVQDLHGVVAGLLDPVEKLLTDWFKKFKNVSKDCKMTFYLEMYDWSGGCKLG
notes: as for B3
B5: SB19 C-terminal truncation construct C3 (peptide)
peptide: MDEKTTGWRGGHVVEGLAGELEQLRARLEHHPQGQREPLVQEVEDVDEGLVQMMSGGCKLG-{puromycin-DNA oligonucleotide}
modifications: reading uncertain; also: 35S-methionine label
B6: SB19 C-terminal truncation construct C2 (peptide)
peptide: MDEKTTGWRGGHVVEGLAGELEQLRARLEHHPQGQREPLVQEVEDVDEGLVQDLHGVVAGLLDPVEMMSGGCKLG
modifications: C-terminus joined through puromycin to a short DNA oligonucleotide (DNA-tagged peptide); 35S-methionine label
B7: Non-selected peptide with two HPQ motifs spaced by 19 residues (peptide)
peptide: MDEAHPQAGPVDQADARLVQQGALQHHPQGDRMMSGGCKLGTGY-{puromycin-DNA oligonucleotide}
modifications: reading uncertain; also: C-terminus joined through puromycin to a short DNA oligonucleotide (DNA-tagged peptide), 35S-methionine label
notes: also called non-selected clone; control peptide
B8: SB4 (peptide)
peptide: MDEKTHWGISTWRGEPLLHHPQAGRLPLDRRRARHRRILGAEPGGVDHGLRLELLDDHRPLVPDHHPQRGPLQRGDLPQVVPLVRLRHAHVLGLGLAAATIT
modifications: C-terminus joined through puromycin to a short DNA oligonucleotide (DNA-tagged peptide); 35S-methionine label
notes: also called peptide SB4
B9: SB2 (peptide)
peptide: MDEKTHCFHPGDHLVRLVEELQALAEGLQRQGGRQPHRLPRRRPHHLQLLLDEAHPQAGPLRERAHQVDGRLLLQHHPQGDRLLQQPQDHPLELVWRLPPS
modifications: C-terminus joined through puromycin to a short DNA oligonucleotide (DNA-tagged peptide); 35S-methionine label
notes: also called peptide SB2; clone SB2
B10: SB7 (peptide)
peptide: MDEKTHWFGTLNSFPTHWMSAVGNGKIDCSFNMNLSLNHWLSSGHPDGALDDQLHPQGDALVGRDDGVVQALRLEGQHQHRRLAQRRADRHRQLVWRLPPS
modifications: C-terminus joined through puromycin to a short DNA oligonucleotide (DNA-tagged peptide); 35S-methionine label
notes: also called peptide SB7
B11: SB1 (peptide)
peptide: MDEKTHCTISMNGAVPLVPHHHPQGDPLRLLHRPQPALLVRHPQGDLVALVEHHEGVDRGLVALPELHAEELGEPVGDLVQGPVEQVQGVVDALVWRLPPS
modifications: C-terminus joined through puromycin to a short DNA oligonucleotide (DNA-tagged peptide); 35S-methionine label
notes: also called peptide SB1; clone SB1
B12: SB19 point mutated peptide M1 (peptide)
peptide: MDEKTTGWRGGHVVEGLAGELEQLRARLEHHGAGQREPMMSGGCKLG-{puromycin-DNA oligonucleotide}
modifications: reading uncertain; also: 35S-methionine label
notes: also called construct M1
B13: SB8 (peptide)
peptide: MDEKTHCTIELNFSFTHWKLHHHPQGDALLDDGVRPHHPLADEGGGLDQGLGHRRGVVAERLARRDPEVLEGLVERHRGLVPRLRHGGERHAEPLVWRLPPS
modifications: C-terminus joined through puromycin to a short DNA oligonucleotide (DNA-tagged peptide); 35S-methionine label
notes: also called peptide SB8
B14: SB5 (peptide)
peptide: MDEKTHWVNVYHPQGDLLVRGHGHDVEALHDQGLHQLDLLVGPPPEVVRALRGEVLGGLRRLVPLDHPQGEALDQARQRPQHLLELHHRALPPALVWRLPPS
modifications: C-terminus joined through puromycin to a short DNA oligonucleotide (DNA-tagged peptide); 35S-methionine label
notes: also called peptide SB5
B15: SB19 C-terminal truncation construct C1 (peptide)
peptide: MDEKTTGWRGGHVVEGLAGELEQLRARLEHHPQGQREPLVQEVEDVDEGLVQDLHGVVAGLLDPVEKLLTDWFKKFKNVSMMSGGCKLG
modifications: C-terminus joined through puromycin to a short DNA oligonucleotide (DNA-tagged peptide); 35S-methionine label

What was measured:
streptavidin [1] = target: T1, streptavidin (UniProt P22629 37-163, limits assumed); test: streptavidin column-binding assay, 35S DNA-tagged peptide on immobilized streptavidin, biotin elution
T1 construct: The same protein was used free (EMSA, Biacore, SBIA) and immobilized on a matrix or plate; also called immobilized streptavidin; Ultralink immobilized streptavidin plus
Method: (§1) The resulting purified DNA-tagged peptides (DTP) were analyzed in a streptavidin column-binding assay, in which ~500 pM ^35S-labeled DTP were mixed with 50 µL of the streptavidin matrix in streptavidin-binding buffer, in a total volume of 300 µL, and incubated for 10 minutes at room temperature with agitation. Then, the contents were loaded onto a chromatography column. The column was drained and washed with 80 column volumes of streptavidin-binding buffer, and then eluted with three consecutive aliquots (3 column volumes each) of streptavidin-binding buffer plus 2 mM biotin over a 15 minute period. All fractions (flow-through, washes, elutions, and irreversibly bound counts) were analyzed by scintillation counting to determine the fraction of DTP that bound streptavidin and eluted with biotin (Table 1).

streptavidin [2] = target: T1, streptavidin; test: streptavidin column-binding assay: 35S-labeled DNA-tagged peptide bound to immobilized streptavidin and eluted with biotin
Method: as §1

streptavidin [3] = target: T1, streptavidin; test: EMSA, DNA-tagged peptide with free streptavidin; SD 0.91, n=8
Method: (§2) The dissociation constants of the selected peptides for streptavidin were measuring using an electrophoretic mobility shift assay (EMSA). In this assay, DTP's were incubated with varying amounts of pure streptavidin (Pierce Immunopure Streptavidin, Rockford, Ill.) in streptavidin-binding buffer plus 5% glycerol to increase the density of the solution so that it could collect at the bottom of the gel well. After incubating at room temperature for 20 minutes, the reactions mixtures were moved into the cold room, where they remained for 10 minutes before being carefully loaded onto a 10% polyacrylamide:bisacrylamide (37.5:1, National Diagnostics, Atlanta, Ga.) gel (thickness 0.7 mm, height 16 cm, width 18 cm) containing 2×TBE, 0.1% Triton X-100 and 5% glycerol. The gel, which had been pre-run for 30 minutes at 13 watts, and the running buffer were pre-cooled to 4° C. Then, the gel was run in the cold room at 13 watts, which increased the temperature of the gel to about 20° C. The gel was run for 45 to 120 minutes, depending on the mobility of the particular DTP. Then, the gel was fixed in 10% acetic acid and 10% methanol for 15 minutes, transferred to electrophoresis paper (Ahlstrom, Mt. Holly Springs, Pa.), dried, and analyzed using a PhosphorImager (Molecular Dynamics, Sunnyvale, Calif.).

streptavidin [4] = target: T1, streptavidin; test: EMSA, DNA-tagged peptide with free streptavidin; SD 5.7, n=4
Method: as §2

streptavidin [5] = target: T1, streptavidin; test: streptavidin column-binding assay, M1 (HPQ to HGA) compared to C4
Method: as §1

streptavidin [6] = target: T1, streptavidin; test: EMSA, DNA-tagged peptide with free streptavidin; SD 22, n=6
Method: as §2

T1 sequence (P22629 37-163 limits assumed): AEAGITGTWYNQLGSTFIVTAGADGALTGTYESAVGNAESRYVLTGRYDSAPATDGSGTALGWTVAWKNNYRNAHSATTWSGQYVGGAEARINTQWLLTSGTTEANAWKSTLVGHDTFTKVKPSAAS

Binder | % binding and eluting (streptavidin [1]) | % binding (streptavidin [2]) | also measured
B1 | 20% |  | 
B2 | 49% |  | 
B3 |  | 69% | 
B4 |  | 30% | 
B5 |  | 89% | 
B6 |  | 88% | 
B7 | 0.16% |  | 
B8 | 49% |  | 
B9 | 48% |  | Kd (streptavidin [3]): 4.8 nM
B10 | 28% |  | 
B11 | 86% |  | Kd (streptavidin [4]): 50 nM
B12 |  | 0.065% | fold reduction of activity against construct C4 (streptavidin [5]): ~1000 fold
B13 | 27% |  | 
B14 | 72% |  | Kd (streptavidin [6]): 110 nM
B15 |  | 87% | 
